{
  "source": "paper PMC11232276",
  "key": {"[1]": {"target": "wildtype (WT) α-synuclein fibrils (human) (UniProt P37840)", "experiment": "native gel or EMSA"}, "[2]": {"target": "wildtype (WT) α-synuclein fibrils (human) (UniProt P37840)", "experiment": "SPR"}, "[3]": {"target": "wildtype (WT) α-synuclein fibrils (human) (UniProt P37840)", "experiment": "flow-induced dispersion analysis"}, "[4]": {"target": "α-synuclein oligomers (human)", "experiment": "flow-induced dispersion analysis"}},
  "data": [
    {"substance": "recombinant human (rh) Bri2 BRICHOS R221E monomer (from UniProt Q9Y287 113-231) (domain or fragment)", "values": [
      {"measurement": "percent of soluble, unbound BRICHOS", "setting": "[1]", "value": 90.6, "unit": "%"},
      {"measurement": "apparent KD, strong binding of the two-phase model", "setting": "[2]", "value": 0.022, "unit": "µM"},
      {"measurement": "apparent KD, weak binding of the two-phase model", "setting": "[2]", "value": 350, "unit": "µM"}
    ]},
    {"substance": "BRICHOS-Alexa488 (rh Bri2 BRICHOS R221E labelled with Alexa-488) (from UniProt Q9Y287 113-231) (domain or fragment)", "values": [
      {"measurement": "Kd", "setting": "[3]", "value": 2.3, "unit": "µM"},
      {"measurement": "Kd", "setting": "[4]", "value": 0.0782, "unit": "µM"}
    ]}
  ]
}
